Reference: patent US20220040319A1 (Regeneron, published 2022)
Like-named read-outs stand apart in the source and are kept apart here. Blank lines part the entries; values can stand above or below the binder they belong to.

Columns and labels:
[1] = biological target: T1, human MET on cells (human, UniProt P08581 25-1390); assay: cell-based or functional assay
[2] = biological target: T1, human MET on cells; assay: cell-based or functional assay; remark: listed apart in the source
[3] = biological target: T2, hMet.mmh (human MET extracellular domain with C-terminal myc-myc-hexahistidine tag) (human, UniProt P08581 309-914; P08581 27-307); assay: SPR 37C, antibody captured
T2 construct: soluble monomeric MET; also called monomeric human MET
Protocol: (§1) Kinetic association (kₐ) and dissociation (kd) rate constants were determined as described in Example 3.

[4] = biological target: T2, hMet.mmh (human MET extracellular …); assay: SPR 37C, antibody captured; remark: listed apart in the source
Protocol: as §1

[5] = biological target: T3, hMET.mFc (dimeric human MET) (human, UniProt P08581 27-307); assay: SPR 37C, antibody captured
T3 construct: soluble dimeric MET protein
Protocol: (§2) The anti-Met antibodies tested in this example were bivalent monospecific binders of MET.
(§3) Kinetic association (kₐ) and dissociation (kd) rate constants were determined by fitting the real-time sensorgrams to a 1:1 binding model using Scrubber 2.0c curve fitting software. Binding dissociation equilibrium constant (KD) and dissociative half-life (t1/2) were calculated from the kinetic rate constants as: […]

[6] = biological target: T2, hMet.mmh (human MET extracellular …); assay: SPR 37C, antibody captured; remark: listed apart in the source
Protocol: as §2, §3

[7] = biological target: T4, MET (c-Met, hepatocyte growth factor receptor) on cells (human, UniProt P08581 25-1390); assay: cell-based or functional assay
[8] = biological target: T4, MET (c-Met, hepatocyte growth factor …); assay: cell-based or functional assay; remark: listed apart in the source
[9] = biological target: T1, human MET on cells; assay: cell-based or functional assay; remark: listed apart in the source
[10] = biological target: T1, human MET on cells; assay: cell-based or functional assay; remark: listed apart in the source
[11] = biological target: T1, human MET on cells; assay: cell-based or functional assay; remark: listed apart in the source
[12] = biological target: T1, human MET on cells; assay: cell-based or functional assay; remark: listed apart in the source
[13] = biological target: T5, human MET (exon14 skip mutation) on NCI-H596 cells (human, UniProt P08581 25-1390); assay: cell-based or functional assay
[14] = biological target: T5, human MET (exon14 skip mutation) on …; assay: cell-based or functional assay; remark: listed apart in the source

T1 sequence (P08581 25-1390 limits assumed, form in doubt): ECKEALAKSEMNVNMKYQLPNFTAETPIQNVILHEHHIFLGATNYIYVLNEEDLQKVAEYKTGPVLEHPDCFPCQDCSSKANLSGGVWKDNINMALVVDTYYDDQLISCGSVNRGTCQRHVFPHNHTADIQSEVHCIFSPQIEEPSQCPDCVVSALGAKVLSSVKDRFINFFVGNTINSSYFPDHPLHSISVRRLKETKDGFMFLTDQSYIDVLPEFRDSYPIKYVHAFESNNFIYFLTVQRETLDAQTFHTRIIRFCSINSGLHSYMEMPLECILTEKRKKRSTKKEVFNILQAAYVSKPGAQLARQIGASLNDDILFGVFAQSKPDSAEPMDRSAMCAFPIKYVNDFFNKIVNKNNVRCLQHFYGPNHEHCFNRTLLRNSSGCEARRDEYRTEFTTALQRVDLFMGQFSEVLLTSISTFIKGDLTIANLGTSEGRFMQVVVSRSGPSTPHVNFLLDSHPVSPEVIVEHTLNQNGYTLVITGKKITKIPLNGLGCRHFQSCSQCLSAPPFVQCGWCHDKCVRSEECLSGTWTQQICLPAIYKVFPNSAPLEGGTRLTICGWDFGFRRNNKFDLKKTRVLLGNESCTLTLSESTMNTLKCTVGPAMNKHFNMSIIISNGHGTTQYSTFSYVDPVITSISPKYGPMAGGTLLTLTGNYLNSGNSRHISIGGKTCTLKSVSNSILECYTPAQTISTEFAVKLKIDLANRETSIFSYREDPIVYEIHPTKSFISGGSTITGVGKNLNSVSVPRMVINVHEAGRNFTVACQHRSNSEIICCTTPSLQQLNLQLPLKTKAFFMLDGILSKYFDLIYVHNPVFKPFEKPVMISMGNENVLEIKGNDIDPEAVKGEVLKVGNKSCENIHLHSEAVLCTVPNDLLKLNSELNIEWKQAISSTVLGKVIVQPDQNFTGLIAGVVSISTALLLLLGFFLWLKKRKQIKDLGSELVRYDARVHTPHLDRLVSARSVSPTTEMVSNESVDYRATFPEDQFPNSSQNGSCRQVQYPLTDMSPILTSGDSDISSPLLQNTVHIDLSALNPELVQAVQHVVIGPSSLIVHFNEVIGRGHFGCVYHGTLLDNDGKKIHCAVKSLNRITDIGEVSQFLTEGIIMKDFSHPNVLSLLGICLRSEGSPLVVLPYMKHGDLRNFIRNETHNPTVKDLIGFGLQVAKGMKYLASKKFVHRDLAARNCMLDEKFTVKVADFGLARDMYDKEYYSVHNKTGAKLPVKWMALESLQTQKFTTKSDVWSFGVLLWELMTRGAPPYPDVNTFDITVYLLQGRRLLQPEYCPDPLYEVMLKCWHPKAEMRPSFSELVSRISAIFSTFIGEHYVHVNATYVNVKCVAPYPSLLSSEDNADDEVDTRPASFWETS
T2 sequence (P08581 other isoform, or with tags, fused parts or gaps limits assumed, chain 1 of 2): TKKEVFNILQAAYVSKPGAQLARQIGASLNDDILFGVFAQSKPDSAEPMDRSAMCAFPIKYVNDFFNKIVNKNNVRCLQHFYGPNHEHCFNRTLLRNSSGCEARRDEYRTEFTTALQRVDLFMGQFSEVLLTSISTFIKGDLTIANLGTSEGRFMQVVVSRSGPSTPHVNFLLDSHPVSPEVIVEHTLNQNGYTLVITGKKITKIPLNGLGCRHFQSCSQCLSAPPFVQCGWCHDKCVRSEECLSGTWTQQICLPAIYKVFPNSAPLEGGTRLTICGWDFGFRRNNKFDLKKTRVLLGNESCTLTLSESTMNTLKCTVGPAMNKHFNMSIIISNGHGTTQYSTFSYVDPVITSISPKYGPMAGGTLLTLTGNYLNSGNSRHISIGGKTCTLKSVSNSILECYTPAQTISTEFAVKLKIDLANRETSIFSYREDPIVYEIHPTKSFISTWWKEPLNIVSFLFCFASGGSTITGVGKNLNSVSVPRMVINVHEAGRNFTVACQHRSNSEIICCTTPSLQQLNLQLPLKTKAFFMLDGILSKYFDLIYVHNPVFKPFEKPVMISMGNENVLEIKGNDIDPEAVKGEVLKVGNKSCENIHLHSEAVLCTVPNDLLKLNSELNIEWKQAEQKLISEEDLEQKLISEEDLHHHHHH
T2 sequence (P08581 27-307 limits assumed, chain 2 of 2): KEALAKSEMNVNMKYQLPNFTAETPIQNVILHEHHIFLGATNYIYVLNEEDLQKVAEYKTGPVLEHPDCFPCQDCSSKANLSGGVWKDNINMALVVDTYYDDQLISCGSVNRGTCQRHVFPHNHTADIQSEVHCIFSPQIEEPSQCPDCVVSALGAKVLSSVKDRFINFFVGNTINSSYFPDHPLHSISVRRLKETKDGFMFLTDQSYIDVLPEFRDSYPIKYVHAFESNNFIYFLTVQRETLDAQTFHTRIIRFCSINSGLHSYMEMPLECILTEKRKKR
T4 sequence (P08581 25-1390 limits assumed, form in doubt): as the sequence (P08581 25-1390 limits assumed, form in doubt) above
T5 sequence (P08581 25-1390, change not shown): as the sequence (P08581 25-1390 limits assumed, form in doubt) above

B1: H4H14638D (bispecific antibody, human IgG4, V domains shown)
VH 1: QVQLVESGGGVVQPGRSLRLSCAASGFTFSNFGMHWVRQAPGKGLEWVAGIWFDGSNKNYIDSVKGRFTISRDNSKNTLYLQMNSLRAEDTAVYYCAREGYDSGTDYIPYDIFDIWGQGTMVTVSS
VH 2: EVQLVESGGGLVQPGGSLRLSCAASGFIVTTNYMTWLRQAPGKGLEWVSLIYSSGHTYYADSVKGRFTISRHNSKNTLYLQMDSLRAEDTAVYYCASAFAADVFDIWGQGTMVTVSS
VL: not shown
Relative MET Level, SNU5 cells, 18 hrs [1]: 0.35 relative to control (hFc) | % Inhibition, HEK293/SRE-Luc Blocking Activity (HGF, 1 h mAb pre-bind) [2]: 79% | EC50, Ligand (HGF)-Independent HEK293/SRE-Luc Activation [2]: 5.9 nM | Fold Response, Ligand (HGF)-Independent HEK293/SRE-Luc Activation [2]: 2.6 fold | IC50, HEK293/SRE-Luc Blocking Activity (HGF, 1 h mAb pre-bind) [2]: 1.1 nM

B2: H4H14638D (bispecific antibody, human IgG4, V domains shown)
VH 1: B1 VH 1
VH 2: B1 VH 2
VL: not shown
notes: MET x MET bispecific, expressed as human IgG4
T½ [3]: 70.2 min | koff [3]: 0.000165 s⁻¹

B4: H4H14640D (bispecific antibody, human IgG4, V domains shown)
VH 1: QVQLVQSGTEVKEPGASVKVSCKASGYSFTTYGISWLRQAPGQGLEWMGWISTYNGDTISAQMLQDRVTLTADTSTRTAYMELRSLRSDDTAVYYCARGHEYDSLVYSYWGQGTLVTVSS
VH 2: B1 VH 2
VL: not shown
notes: MET x MET bispecific, expressed as human IgG4; also called bispecific antibody No. 138
T½ [3]: ≥ 1160 min | koff [3]: ≤ 1e-05 s⁻¹

B6: H4H13312P2 (antibody, human IgG4, V domains shown)
VH: B1 VH 2
VL: not shown
notes: human IgG4 Fc (H4H), bivalent monospecific; also called parental antibody 2; M2
T½ [4]: 1.4 min | Kd [5]: 2.79 nM | T½ [5]: 6.7 min | Kd [6]: 227 nM | T½ [6]: 0.7 min | IC50 (read off the curve); blocking of HGF-dependent SRE-driven luciferase signal in HEK293T cells [7]: ~0.4 nM | EC50 (read off the curve); HGF-independent SRE-driven luciferase signal in HEK293T cells [8]: ~0.5 nM

B7: H4H14639D (bispecific antibody, human IgG4, V domains shown)
VH 1: EVQLVESGGGLVQPGTSLRLSCAASGFTFDDYAMHWVRQAPGKGLEWVSGITWNSYNIDYADSVKGRFTISRDNAKNSLYLQMNSLRAEDTALYYCAKDDDYSNYVYFDYWGQGTLVTVSS
VH 2: B1 VH 2
VL: not shown
notes: MET x MET bispecific, human IgG4; also called No. 122; MET×MET bispecific antibody
Relative Cell Growth (n = 3), Hs746T cells, 5 µg/ml, 5 days [9]: 0.647 normalized to control | Relative Cell Growth (n = 3), SNU5 cells, 5 µg/ml, 5 days [10]: 0.271 normalized to control | IC50, 6-day in vitro cytotoxicity, A549 [11]: 0.17 nM | IC50, 6-day in vitro cytotoxicity, EBC-1 [11]: 0.37 nM | IC50, 6-day in vitro cytotoxicity, Hs746t [11]: 0.44 nM | Max % Kill, 6-day in vitro cytotoxicity, A549 [11]: 29% | Max % Kill, 6-day in vitro cytotoxicity, EBC-1 [11]: 66% | Max % Kill, 6-day in vitro cytotoxicity, Hs746t [11]: 35% | Relative Cell Growth (n = 3), EBC-1 cells, 0.1 µg/mL H4H14639D [12]: 0.397 relative to control | Relative Cell Growth (n = 3), EBC-1 cells, 1 µg/mL H4H14639D [12]: 0.462 relative to control | Relative MET Level, NCI-H596 cells, 18 h [13]: 0.24 relative to control (hFc) | Relative Cell Growth (n = 3), NCI-H596 cells in soft agar, 5 µg/ml, two weeks [14]: 1.07 normalized to control

The next lines start with the values.

T½ [3]: 19.5 min | koff [3]: 0.000592 s⁻¹
B3: H4H16448D (bispecific antibody, human IgG4, V domains shown)
VH 1: QVQLVESGGGVVQPGRSLRLSCVASGFSFSNFGMHWVRQAPGKGLEWVAIIWYDGSNKYYSDSVKGRFTISRDNSKNTLYLQMNSLRVDDTAVYYCARFDRWKFDAFDIWGQGTMVTVSS
VH 2: B1 VH 2
VL: not shown
notes: MET x MET bispecific, expressed as human IgG4; also called bispecific antibody No. 219

Relative MET Level, SNU5 cells, 18 hrs [1]: 0.18 relative to control (hFc) | % Inhibition, HEK293/SRE-Luc Blocking Activity (HGF, 1 h mAb pre-bind) [2]: 89% | EC50, Ligand (HGF)-Independent HEK293/SRE-Luc Activation [2]: 6.8 nM | Fold Response, Ligand (HGF)-Independent HEK293/SRE-Luc Activation [2]: 2.5 fold | IC50, HEK293/SRE-Luc Blocking Activity (HGF, 1 h mAb pre-bind) [2]: 0.52 nM
B5: H4H14640D (bispecific antibody, human IgG4, V domains shown)
VH 1: B4 VH 1
VH 2: B1 VH 2
VL: not shown

T½ [3]: 35.3 min | koff [3]: 0.000327 s⁻¹
B8: H4H14641D (bispecific antibody, human IgG4, V domains shown)
VH 1: QVQLVESGGGVVQPGRSLRLSCSASGFSFSHFGMHWVRQVPGGGLEWVTSIWFDGSNRYYADSLKGRFTISRDNSKNTLYLEMNSLRAEDTAVYYCVREGILGTTNPYDVFDVWGQGTMVTVSS
VH 2: B1 VH 2
VL: not shown
notes: as for B2

T½ [3]: 29.4 min | koff [3]: 0.000393 s⁻¹
B9: H4H16445D (bispecific antibody, human IgG4, V domains shown)
VH 1: QVQLVESGGGVVQPGGSLRLSCAASGFTFSGYGMHWVRQAPGKGLEWMAVIWYDGSNDYYPDSVKGRFTISRDNSKNTLYLQMNSLRVEDTAVYYCARDAWDLLRSFDYWGQGTLVTVSS
VH 2: B1 VH 2
VL: not shown
notes: MET x MET bispecific, expressed as human IgG4; also called bispecific antibody No. 26
